Data reported in paper PMC3135787.

B1: Human guanylate kinase (hGUK1) (Homo sapiens) (protein)
chain: MSGPRPVVLSGPSGAGKSTLLKRLLQEHSGIFGFSVSHTTRNPRPGEENGKDYYFVTREVMQRDIAAGDFIEHAEFSGNLYGTSKVAVQAVQAMNRICVLDVDLQGVRNIKATDLRPIYISVQPPSLHVLEQRLRQRNTETEESLVKRLAAAQADMESSKEPGLFDVVIINDSLDQAYAELKEALSEEIKKAQRTGA
B2: Hint1 (Homo sapiens) (protein)
chain: MADEIAKAQVARPGGDTIFGKIIRKEIPAKIIFEDDRCLAFHDISPQAPTHFLVIPKKHISQISVAEDDDESLLGHLMIVGKKCAADLGLNKGYRMVVNEGSDGGQSVYHVHLHVLGGRQMHWPPG

Key:
[1] = substrate: Nc1nc2c(ncn2[C@@H]2O[C@H](COP(=O)(O)O)[C@@H](O)[C@H]2O)c(=O)[nH]1; assay: hGUK1-mediated phosphorylation, coupled spectrophotometric assay; type: biochemical, human; conditions: other: hGUK1, 37°C
[2] = substrate: COc1nc(N)nc2c1ncn2[C@@H]1O[C@H](COP(=O)(O)N[C@@H](C)C(=O)O)[C@@H](O)[C@@]1(C)F; assay: Hint1 activity assay; type: biochemical; conditions: other: Hint1, 37 °C, pH 7.2

Row | Protein | Km [1] | kcat [1] | kcat/Km [1] | Km [2] | kcat [2]
1 | B1 | 19.1 ± 4.5 µM | 74.7 ± 17.6 s⁻¹ | 3.9e+06 M⁻¹ s⁻¹ | – | –
2 | B2 | – | – | – | 445 ± 182 µM | 0.0573 s⁻¹
